Measurements reported in patent publication US20140087995A1 (published 2014).
Numbered stars: 1 amine (or outer) side, 2 acyl side, 3 side chain; on linkers, the order of the positions; unused ones are H or OH. Bridge positions count the residues as written; N and C are the ends. Side chains are listed from the residue outwards. Ends that are not written are not given here. * marks the point of attachment. C20 diacid = O=C(O)CCCCCCCCCCCCCCCCCCC(=O)*; γGlu = O=C(O)[C@H](CCC(=O)[*:2])N[*:1]

T1: rat calcitonin receptor (rat, UniProt P32214 25-516)
T1 construct: whole, on cells; Membranes of transiently transfected BHK tk'ts 13 cells (Assay VIII); also called rCTR
T1 sequence (looked up): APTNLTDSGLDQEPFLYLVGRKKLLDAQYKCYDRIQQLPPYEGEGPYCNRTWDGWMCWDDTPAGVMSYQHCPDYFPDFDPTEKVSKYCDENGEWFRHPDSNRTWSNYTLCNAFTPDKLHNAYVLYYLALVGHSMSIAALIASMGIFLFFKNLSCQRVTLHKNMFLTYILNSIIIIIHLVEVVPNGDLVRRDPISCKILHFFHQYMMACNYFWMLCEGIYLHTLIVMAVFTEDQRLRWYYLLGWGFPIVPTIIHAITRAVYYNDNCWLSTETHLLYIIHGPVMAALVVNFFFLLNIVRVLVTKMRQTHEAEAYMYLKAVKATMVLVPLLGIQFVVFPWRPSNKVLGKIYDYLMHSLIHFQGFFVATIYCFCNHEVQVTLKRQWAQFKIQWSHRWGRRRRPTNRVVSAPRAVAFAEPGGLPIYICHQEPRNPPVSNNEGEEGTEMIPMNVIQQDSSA

T2: human calcitonin receptor (human, UniProt P30988 25-474)
T2 construct: whole, on cells; Membranes of a stably transfected BHK cell line (Assay VII); also called hCTR; hCT
T2 sequence (looked up): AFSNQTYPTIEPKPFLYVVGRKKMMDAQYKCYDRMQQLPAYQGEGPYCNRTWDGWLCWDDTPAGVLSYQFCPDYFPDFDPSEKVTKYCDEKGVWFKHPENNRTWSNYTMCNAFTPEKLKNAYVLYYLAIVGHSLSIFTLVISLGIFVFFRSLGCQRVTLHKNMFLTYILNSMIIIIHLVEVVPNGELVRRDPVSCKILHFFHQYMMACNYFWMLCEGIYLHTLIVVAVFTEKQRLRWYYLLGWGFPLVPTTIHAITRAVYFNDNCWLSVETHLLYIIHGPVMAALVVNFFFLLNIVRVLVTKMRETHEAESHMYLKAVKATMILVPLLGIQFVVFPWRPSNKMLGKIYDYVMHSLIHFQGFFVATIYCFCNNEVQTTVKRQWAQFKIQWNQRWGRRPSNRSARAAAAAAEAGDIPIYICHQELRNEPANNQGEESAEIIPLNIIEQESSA

T3: rat amylin receptor (rat calcitonin receptor + rat RAMP 3) (rat, UniProt P32214 25-516; Q9JJ73 23-147)
T3 construct: whole, on cells; Membranes of transiently transfected BHK tk'ts 13 cells (Assay VI); also called rAmylin-R; rat amylin 3(a) receptor
T3 sequence (looked up) 1: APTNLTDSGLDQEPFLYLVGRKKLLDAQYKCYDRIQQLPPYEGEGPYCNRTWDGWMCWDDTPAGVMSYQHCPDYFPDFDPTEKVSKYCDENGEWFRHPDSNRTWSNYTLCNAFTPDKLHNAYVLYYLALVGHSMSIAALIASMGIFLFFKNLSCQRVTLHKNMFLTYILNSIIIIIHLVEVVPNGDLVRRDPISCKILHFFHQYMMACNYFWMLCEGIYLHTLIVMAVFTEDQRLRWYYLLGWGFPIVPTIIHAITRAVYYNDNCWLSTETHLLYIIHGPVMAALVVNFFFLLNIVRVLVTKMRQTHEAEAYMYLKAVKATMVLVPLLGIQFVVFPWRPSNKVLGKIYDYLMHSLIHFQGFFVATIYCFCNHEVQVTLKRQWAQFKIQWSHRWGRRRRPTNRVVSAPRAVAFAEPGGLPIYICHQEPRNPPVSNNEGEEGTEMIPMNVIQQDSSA
T3 sequence (looked up) 2: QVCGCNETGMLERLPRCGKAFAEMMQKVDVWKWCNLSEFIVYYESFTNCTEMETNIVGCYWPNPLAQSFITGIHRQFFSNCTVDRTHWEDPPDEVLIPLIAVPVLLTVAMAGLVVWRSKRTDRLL


Tests used:
rat calcitonin receptor [1] = molecular target: T1, rat calcitonin receptor; experiment: ratio IC50 rat calcitonin receptor / IC50 rat amylin receptor (reference)
[2] = molecular target: T2, human calcitonin receptor; experiment: ratio IC50 human calcitonin receptor / IC50 human amylin receptor (reference)
Procedure, shortened: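 Scintillation proximity competition binding on cell membranes at 35 ng/μL with SPA beads, in 50 mM Hepes pH 7.4, 1 mM CaCl2, 5 mM MgCl₂, 0.1% OA, 0.02% Tween20. Incubated 120 min at 25° C with shaking. IC₅₀ from one-site competition fit.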

rat calcitonin receptor [3] = molecular target: T1, rat calcitonin receptor; experiment: SPA competition with 125I-calcitonin, membranes of BHK cells with rat calcitonin receptor (Assay VIII)
[4] = molecular target: T3, rat amylin receptor (rat calcitonin …); experiment: SPA competition with 125I-rat amylin, membranes of BHK cells with rat calcitonin receptor + rat RAMP3 (Assay VI)

Row | Ratio rCT/rAmylin binding (rat calcitonin receptor [1]) | Ratio hCT/hAmylin binding [2] | IC50 (rat calcitonin receptor [3]) [nM] | IC50 [4] [nM] | Binder
1 | 72.4 | 24.8 | 9.05 | 0.125 | K([γGlu-C20 diacid])CNTATCATQRLAHFLRHSSPNFGAIPSSTPVGPNTY-NH2 (disulfide 2-7; N-terminus assumed; SMILES CC[C@H](C)[C@H](NC(=O)[C@H](C)NC(=O)CNC(=O)[C@H](Cc1ccccc1)NC(=O)[C@H](CC(N)=O)NC(=O)[C@@H]1CCCN1C(=O)[C@H](CO)NC(=O)[C@H](CO)NC(=O)[C@H](Cc1c[nH]cn1)NC(=O)[C@H](CCCNC(=N)N)NC(=O)[C@H](CC(C)C)NC(=O)[C@H](Cc1ccccc1)NC(=O)[C@H](Cc1c[nH]cn1)NC(=O)[C@H](C)NC(=O)[C@H](CC(C)C)NC(=O)[C@H](CCCNC(=N)N)NC(=O)[C@H](CCC(N)=O)NC(=O)[C@@H](NC(=O)[C@H](C)NC(=O)[C@@H]1CSSC[C@H](NC(=O)[C@@H](N)CCCCNC(=O)CC[C@H](NC(=O)CCCCCCCCCCCCCCCCCCC(=O)O)C(=O)O)C(=O)N[C@@H](CC(N)=O)C(=O)N[C@@H]([C@@H](C)O)C(=O)N[C@@H](C)C(=O)N[C@@H]([C@@H](C)O)C(=O)N1)[C@@H](C)O)C(=O)N1CCC[C@H]1C(=O)N[C@@H](CO)C(=O)N[C@@H](CO)C(=O)N[C@H](C(=O)N1CCC[C@H]1C(=O)N[C@H](C(=O)NCC(=O)N1CCC[C@H]1C(=O)N[C@@H](CC(N)=O)C(=O)N[C@H](C(=O)N[C@@H](Cc1ccc(O)cc1)C(N)=O)[C@@H](C)O)C(C)C)[C@@H](C)O)
2 | 126 | 159 | 352 | 2.8 | K([γGlu-γGlu-C20 diacid])CNTATCATQRLANFLRHSSPNFGAIPSSTNVGHNTY-NH2 (disulfide 2-7; N-terminus assumed; SMILES CC[C@H](C)[C@H](NC(=O)[C@H](C)NC(=O)CNC(=O)[C@H](Cc1ccccc1)NC(=O)[C@H](CC(N)=O)NC(=O)[C@@H]1CCCN1C(=O)[C@H](CO)NC(=O)[C@H](CO)NC(=O)[C@H](Cc1c[nH]cn1)NC(=O)[C@H](CCCNC(=N)N)NC(=O)[C@H](CC(C)C)NC(=O)[C@H](Cc1ccccc1)NC(=O)[C@H](CC(N)=O)NC(=O)[C@H](C)NC(=O)[C@H](CC(C)C)NC(=O)[C@H](CCCNC(=N)N)NC(=O)[C@H](CCC(N)=O)NC(=O)[C@@H](NC(=O)[C@H](C)NC(=O)[C@@H]1CSSC[C@H](NC(=O)[C@@H](N)CCCCNC(=O)CC[C@H](NC(=O)CC[C@H](NC(=O)CCCCCCCCCCCCCCCCCCC(=O)O)C(=O)O)C(=O)O)C(=O)N[C@@H](CC(N)=O)C(=O)N[C@@H]([C@@H](C)O)C(=O)N[C@@H](C)C(=O)N[C@@H]([C@@H](C)O)C(=O)N1)[C@@H](C)O)C(=O)N1CCC[C@H]1C(=O)N[C@@H](CO)C(=O)N[C@@H](CO)C(=O)N[C@H](C(=O)N[C@@H](CC(N)=O)C(=O)N[C@H](C(=O)NCC(=O)N[C@@H](Cc1c[nH]cn1)C(=O)N[C@@H](CC(N)=O)C(=O)N[C@H](C(=O)N[C@@H](Cc1ccc(O)cc1)C(N)=O)[C@@H](C)O)C(C)C)[C@@H](C)O, also called compound 86)
3 | 158 | 14.7 | 452 | 2.86 | K([γGlu-γGlu-C20 diacid])CNTATCATQRLAEFLRHSSPNFGAIPSSTNVGRETY-NH2 (disulfide 2-7; N-terminus assumed; SMILES CC[C@H](C)[C@H](NC(=O)[C@H](C)NC(=O)CNC(=O)[C@H](Cc1ccccc1)NC(=O)[C@H](CC(N)=O)NC(=O)[C@@H]1CCCN1C(=O)[C@H](CO)NC(=O)[C@H](CO)NC(=O)[C@H](Cc1c[nH]cn1)NC(=O)[C@H](CCCNC(=N)N)NC(=O)[C@H](CC(C)C)NC(=O)[C@H](Cc1ccccc1)NC(=O)[C@H](CCC(=O)O)NC(=O)[C@H](C)NC(=O)[C@H](CC(C)C)NC(=O)[C@H](CCCNC(=N)N)NC(=O)[C@H](CCC(N)=O)NC(=O)[C@@H](NC(=O)[C@H](C)NC(=O)[C@@H]1CSSC[C@H](NC(=O)[C@@H](N)CCCCNC(=O)CC[C@H](NC(=O)CC[C@H](NC(=O)CCCCCCCCCCCCCCCCCCC(=O)O)C(=O)O)C(=O)O)C(=O)N[C@@H](CC(N)=O)C(=O)N[C@@H]([C@@H](C)O)C(=O)N[C@@H](C)C(=O)N[C@@H]([C@@H](C)O)C(=O)N1)[C@@H](C)O)C(=O)N1CCC[C@H]1C(=O)N[C@@H](CO)C(=O)N[C@@H](CO)C(=O)N[C@H](C(=O)N[C@@H](CC(N)=O)C(=O)N[C@H](C(=O)NCC(=O)N[C@@H](CCCNC(=N)N)C(=O)N[C@@H](CCC(=O)O)C(=O)N[C@H](C(=O)N[C@@H](Cc1ccc(O)cc1)C(N)=O)[C@@H](C)O)C(C)C)[C@@H](C)O)
4 | 3 | 1.2 | 0.371 | 0.125 | K([γGlu-C20 diacid])CNTATCATQRLAHFLRHSSPNFGAIPSSTNVGPNTP-NH2 (disulfide 2-7; N-terminus assumed; SMILES CC[C@H](C)[C@H](NC(=O)[C@H](C)NC(=O)CNC(=O)[C@H](Cc1ccccc1)NC(=O)[C@H](CC(N)=O)NC(=O)[C@@H]1CCCN1C(=O)[C@H](CO)NC(=O)[C@H](CO)NC(=O)[C@H](Cc1c[nH]cn1)NC(=O)[C@H](CCCNC(=N)N)NC(=O)[C@H](CC(C)C)NC(=O)[C@H](Cc1ccccc1)NC(=O)[C@H](Cc1c[nH]cn1)NC(=O)[C@H](C)NC(=O)[C@H](CC(C)C)NC(=O)[C@H](CCCNC(=N)N)NC(=O)[C@H](CCC(N)=O)NC(=O)[C@@H](NC(=O)[C@H](C)NC(=O)[C@@H]1CSSC[C@H](NC(=O)[C@@H](N)CCCCNC(=O)CC[C@H](NC(=O)CCCCCCCCCCCCCCCCCCC(=O)O)C(=O)O)C(=O)N[C@@H](CC(N)=O)C(=O)N[C@@H]([C@@H](C)O)C(=O)N[C@@H](C)C(=O)N[C@@H]([C@@H](C)O)C(=O)N1)[C@@H](C)O)C(=O)N1CCC[C@H]1C(=O)N[C@@H](CO)C(=O)N[C@@H](CO)C(=O)N[C@H](C(=O)N[C@@H](CC(N)=O)C(=O)N[C@H](C(=O)NCC(=O)N1CCC[C@H]1C(=O)N[C@@H](CC(N)=O)C(=O)N[C@H](C(=O)N1CCC[C@H]1C(N)=O)[C@@H](C)O)C(C)C)[C@@H](C)O)
5 | 137 | 48.6 | 52.4 | 0.381 | K([γGlu-γGlu-C20 diacid])CNTATCATQRLANFLRHSSPNFGAIPSSTPVGPRTY-NH2 (disulfide 2-7; N-terminus assumed; SMILES CC[C@H](C)[C@H](NC(=O)[C@H](C)NC(=O)CNC(=O)[C@H](Cc1ccccc1)NC(=O)[C@H](CC(N)=O)NC(=O)[C@@H]1CCCN1C(=O)[C@H](CO)NC(=O)[C@H](CO)NC(=O)[C@H](Cc1c[nH]cn1)NC(=O)[C@H](CCCNC(=N)N)NC(=O)[C@H](CC(C)C)NC(=O)[C@H](Cc1ccccc1)NC(=O)[C@H](CC(N)=O)NC(=O)[C@H](C)NC(=O)[C@H](CC(C)C)NC(=O)[C@H](CCCNC(=N)N)NC(=O)[C@H](CCC(N)=O)NC(=O)[C@@H](NC(=O)[C@H](C)NC(=O)[C@@H]1CSSC[C@H](NC(=O)[C@@H](N)CCCCNC(=O)CC[C@H](NC(=O)CC[C@H](NC(=O)CCCCCCCCCCCCCCCCCCC(=O)O)C(=O)O)C(=O)O)C(=O)N[C@@H](CC(N)=O)C(=O)N[C@@H]([C@@H](C)O)C(=O)N[C@@H](C)C(=O)N[C@@H]([C@@H](C)O)C(=O)N1)[C@@H](C)O)C(=O)N1CCC[C@H]1C(=O)N[C@@H](CO)C(=O)N[C@@H](CO)C(=O)N[C@H](C(=O)N1CCC[C@H]1C(=O)N[C@H](C(=O)NCC(=O)N1CCC[C@H]1C(=O)N[C@@H](CCCNC(=N)N)C(=O)N[C@H](C(=O)N[C@@H](Cc1ccc(O)cc1)C(N)=O)[C@@H](C)O)C(C)C)[C@@H](C)O)
